From patent US20140128320A1 (TRUSTEES OF COLUMBIA UNIVERSITY IN THE CITY OF NEW YORK, published 2014)

Target: T1, insulin receptor (InsR) expressed in ROS17/2.8 osteoblast cells (rat (by the cell line;  for …, UniProt P15127 27-1383, limits assumed)
T1 construct: The species is inferred from the cell line only; also called insulin receptor in ROS cells
Experiment: GST pull-down (substrate trapping) from ROS17/2.8 cell lysate, western blot
Method: Recombinant proteins bound to Sepharose beads for 1 hour at 4° C. (insulin receptor trapping) or for 2 h at 4° C. […] Precipitates were collected, washed four times with lysis buffer and resolved on SDS-PAGE, followed by western blotting. Insulin receptor (InsR) was detected using rabbit anti-insulin receptor antibodies (Santa-Cruz, C-19) and GST was detected by mouse anti-GST antibodies (Santa-Cruz).

T1 sequence (P15127 27-1383 limits assumed): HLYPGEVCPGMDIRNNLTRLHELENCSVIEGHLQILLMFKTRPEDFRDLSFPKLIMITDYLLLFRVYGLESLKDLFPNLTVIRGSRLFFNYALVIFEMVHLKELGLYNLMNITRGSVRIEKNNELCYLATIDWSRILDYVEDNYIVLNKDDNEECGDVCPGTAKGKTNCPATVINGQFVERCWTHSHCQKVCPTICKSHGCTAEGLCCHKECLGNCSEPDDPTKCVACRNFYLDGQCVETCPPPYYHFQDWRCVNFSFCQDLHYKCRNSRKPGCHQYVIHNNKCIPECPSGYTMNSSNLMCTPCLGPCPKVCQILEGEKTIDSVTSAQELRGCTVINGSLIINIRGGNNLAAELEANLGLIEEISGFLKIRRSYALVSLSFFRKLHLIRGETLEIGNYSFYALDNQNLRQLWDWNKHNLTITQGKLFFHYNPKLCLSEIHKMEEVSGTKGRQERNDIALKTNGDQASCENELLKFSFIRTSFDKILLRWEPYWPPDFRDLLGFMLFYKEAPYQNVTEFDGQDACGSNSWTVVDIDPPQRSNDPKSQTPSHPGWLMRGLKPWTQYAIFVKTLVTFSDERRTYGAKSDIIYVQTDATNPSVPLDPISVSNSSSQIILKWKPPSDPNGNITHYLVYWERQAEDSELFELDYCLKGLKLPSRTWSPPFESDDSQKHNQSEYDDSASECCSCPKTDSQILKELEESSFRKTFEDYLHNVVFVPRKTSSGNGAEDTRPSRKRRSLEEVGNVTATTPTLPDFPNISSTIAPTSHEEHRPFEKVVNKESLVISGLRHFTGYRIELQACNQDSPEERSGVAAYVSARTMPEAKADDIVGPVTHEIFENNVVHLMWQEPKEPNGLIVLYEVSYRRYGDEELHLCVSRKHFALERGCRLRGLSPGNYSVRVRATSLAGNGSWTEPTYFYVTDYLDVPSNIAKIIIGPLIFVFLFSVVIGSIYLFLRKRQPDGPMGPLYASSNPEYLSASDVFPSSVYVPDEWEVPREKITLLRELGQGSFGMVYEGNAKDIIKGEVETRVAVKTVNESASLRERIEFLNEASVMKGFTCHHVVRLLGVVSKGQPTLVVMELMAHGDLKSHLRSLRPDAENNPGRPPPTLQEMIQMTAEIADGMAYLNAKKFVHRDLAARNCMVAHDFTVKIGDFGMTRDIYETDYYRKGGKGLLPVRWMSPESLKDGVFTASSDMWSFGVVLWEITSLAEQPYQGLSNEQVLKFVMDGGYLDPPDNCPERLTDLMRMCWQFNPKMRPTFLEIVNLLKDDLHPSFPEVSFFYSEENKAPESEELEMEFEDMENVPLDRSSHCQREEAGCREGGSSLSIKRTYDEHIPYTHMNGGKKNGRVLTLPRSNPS

B1: GST-PTP^WT (a fusion of GST with the phosphatase domain I of OST-PTP, rat a.a. 1116-1412) (enzyme)
chain: KELMPYNLWRTHRPIPIHSFRQSYEAKSAHAHQTFFQEFEELKEVGKDQPRLEAEHPDNIIKNRYPHVLPYDHSRVRLTQLPGEPHSDYINANFIPGYSHTQEIIATQGPLKKTLEDFWRLVWEQQVHVIIMLTVGMENGRVLCEHYWPANSTPVTHGHITIHLLAEEPEDEWTRREFQLQHGTEQKQRRVKQLQFTTWPDHSVPEAPSSLLAFVELVQEQVQATQGKGPILVHCSAGVGRTGTFVALLRLLRQLEEEKVADVFNTVYILRLHRPLMIQTLSQYIFLHSCLLNKILE
notes: also called WT OST-PTP; not shown: Glutathione S-transferase (GST) encoded by the vector pGEX 4T3 (Amersham)
  binding result: no binding
